The target of one test is F-actin (UniProt P68135). Kind of test: pull-down; actin isolation: 5 µM MVI ± 15 µM NDP52 with 5 µM F-actin (20% biotinylated), streptavidin Dynabeads, 150 mM NaCl, 50 mM Tris.HCl pH 7.5, 1 mM MgCl2, 1 mM DTT, RT; SDS–PAGE of pellet and supernatant.
Test [1] concerns the target MVI_(TAIL(NI)). Kind of test: FRET or BRET; stopped flow; 1 µM FITC-MVI_TAIL(NI) and 1 µM AF555-MVI_TAIL(NI) pre-mixed, then mixed with an excess of unlabelled NDP52, pseudo-first order; 25°C, 50 mM Tris–HCl pH 7.5, 150 mM NaCl, 1 mM DTT, 3 mM MgCl2. For orientation: Bioluminescence resonance energy transfer reports proximity on the nanometre scale.
The target in test [2] is MVI_(TAIL(NI)). Described as above. This is another data set of the same source.
In a further test the target is MVI_(814–1060). In words: FRET or BRET; titration of Alexa555-CBD against 1 µM FITC-labelled N-terminal tail fragment, plate reader, 25°C, 50 mM Tris·HCl pH 7.5, 150 mM NaCl, 1 mM DTT; fitted to a quadratic binding equation.
Test [3] addresses MVI_(814–1091) (containing the LI). The test is described as above.
The target of test [4] is MVI_(TAIL(NI)). Kind of test: FRET or BRET; stopped flow; 1 µM FITC-MVI_TAIL(NI) mixed with excess AF555-NDP52, pseudo-first order; 25°C, 50 mM Tris–HCl pH 7.5, 150 mM NaCl, 1 mM DTT, 3 mM MgCl2.
Test [5] addresses MVI_(TAIL(NI)).
Test [6] concerns the target T1, nuclear dot protein 52 (NDP52), Q13137.
T1 chain: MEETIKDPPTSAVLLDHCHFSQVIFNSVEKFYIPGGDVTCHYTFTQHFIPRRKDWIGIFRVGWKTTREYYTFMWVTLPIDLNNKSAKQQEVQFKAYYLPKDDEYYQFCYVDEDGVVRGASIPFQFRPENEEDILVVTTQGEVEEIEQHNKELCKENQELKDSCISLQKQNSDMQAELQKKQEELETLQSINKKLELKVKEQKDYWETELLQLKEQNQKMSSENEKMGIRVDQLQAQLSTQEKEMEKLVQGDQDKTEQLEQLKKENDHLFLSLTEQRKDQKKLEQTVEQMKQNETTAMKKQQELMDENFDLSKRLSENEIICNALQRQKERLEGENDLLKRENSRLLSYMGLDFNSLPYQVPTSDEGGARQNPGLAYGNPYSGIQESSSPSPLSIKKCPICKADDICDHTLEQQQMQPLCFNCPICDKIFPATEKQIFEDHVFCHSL
Kind of test: SEC-MALS; 100 µl of 2 mg/ml protein on Superdex 200 (30 × 1 cm), 150 mM NaCl, 50 mM Tris.HCl pH 7.5, 1 mM DTT, room temperature. Conditions: remark: other sources report otherwise.

Where two headings read alike, the source gives them in different places.

Regarding Full-length MVI NI (natural protein), in the test with F-actin, the percent of MVI bound to actin is 50% and the percent of MVI bound to actin (with an excess of NDP52) was greater than 80%. In the test with Full-length MVI NI, the kcat of the steady-state actin-activated ATPase of full-length MVI in the presence of dimeric NDP52 came to 2.11 s⁻¹ and the kcat of the steady-state actin-activated ATPase of full-length MVI in the presence of monomeric tDab2 is 2.55 s⁻¹.
As to MVI_(1–1060) (domain or fragment), the kcat of the steady-state actin-activated ATPase of MVI 1-1060 with MVI_(1–1060) turned out to be 2.79 s⁻¹.
For MVI_(TAIL(NI)) (domain or fragment), the observed rate constant of the FRET increase (dimerization after adding NDP52) came to 2.2 s⁻¹ with MVI_(TAIL(NI)) [1] and 2.45 s⁻¹ with MVI_(TAIL(NI)) [2].
Consider “Myosin VI cargo binding domain (CBD) (domain or fragment)”, for which the results for the equilibrium dissociation constant (Kd) (in the test with MVI_(814–1060); in test [3]) were 4.8 µM and 5.98 µM, respectively.

B1: nuclear dot protein 52 (NDP52) (natural protein)
chain: MEETIKDPPTSAVLLDHCHFSQVIFNSVEKFYIPGGDVTCHYTFTQHFIPRRKDWIGIFRVGWKTTREYYTFMWVTLPIDLNNKSAKQQEVQFKAYYLPKDDEYYQFCYVDEDGVVRGASIPFQFRPENEEDILVVTTQGEVEEIEQHNKELCKENQELKDSCISLQKQNSDMQAELQKKQEELETLQSINKKLELKVKEQKDYWETELLQLKEQNQKMSSENEKMGIRVDQLQAQLSTQEKEMEKLVQGDQDKTEQLEQLKKENDHLFLSLTEQRKDQKKLEQTVEQMKQNETTAMKKQQELMDENFDLSKRLSENEIICNALQRQKERLEGENDLLKRENSRLLSYMGLDFNSLPYQVPTSDEGGARQNPGLAYGNPYSGIQESSSPSPLSIKKCPICKADDICDHTLEQQQMQPLCFNCPICDKIFPATEKQIFEDHVFCHSL
modifications: Alexa Fluor 555 label in the stopped-flow FRET assay (site not stated); unlabelled elsewhere
With B1, in the test with MVI_(TAIL(NI)) [4], the dissociation constant (Kd) (usually the free concentration of one partner at which half of the binding sites on the other are occupied at equilibrium, for simple one-to-one binding) stood at 1.94 µM; the dissociation rate constant (koff) – broadly, the rate constant with which the complex falls apart – was found to be 3.2 s⁻¹; the on-rate constant (kon) – broadly, a measure of how fast the partners come together – stood at 1.65e+06 M⁻¹ s⁻¹; the rate constant of the second phase (unfolding after binding, independent of NDP52 concentration) was 2.2 s⁻¹. This molecule yielded a rate constant of the fluorescence decrease of Cy3B-calmodulin bound to MVI TAIL(NI) on mixing with excess NDP52 (unfolding; independent of NDP52 concentration) with MVI_(TAIL(NI)) [5] of 1.95 s⁻¹.

B2: nuclear dot protein 52 (NDP52), Q13137 1-446 (natural protein)
chain: MEETIKDPPTSAVLLDHCHFSQVIFNSVEKFYIPGGDVTCHYTFTQHFIPRRKDWIGIFRVGWKTTREYYTFMWVTLPIDLNNKSAKQQEVQFKAYYLPKDDEYYQFCYVDEDGVVRGASIPFQFRPENEEDILVVTTQGEVEEIEQHNKELCKENQELKDSCISLQKQNSDMQAELQKKQEELETLQSINKKLELKVKEQKDYWETELLQLKEQNQKMSSENEKMGIRVDQLQAQLSTQEKEMEKLVQGDQDKTEQLEQLKKENDHLFLSLTEQRKDQKKLEQTVEQMKQNETTAMKKQQELMDENFDLSKRLSENEIICNALQRQKERLEGENDLLKRENSRLLSYMGLDFNSLPYQVPTSDEGGARQNPGLAYGNPYSGIQESSSPSPLSIKKCPICKADDICDHTLEQQQMQPLCFNCPICDKIFPATEKQIFEDHVFCHSL
modifications: here or on the partner: Alexa Fluor 555 label in the stopped-flow FRET assay (site not stated); unlabelled elsewhere; Alexa Fluor 555 label in the stopped-flow FRET assay (site not stated); unlabelled elsewhere
As to B2, the stoichiometry N – broadly, the number of molecules, sites or subunits per partner or assembly – in test [6] amounted to 2.

(Values after publication PMC9342898.)
